Literature values in article PMC12528258.
Read-outs that look alike come from different tables or passages of the source.

Assays:
[1] = biological target: H3K9me3 tail tail (Homo sapiens) (UniProt P68431)
[2] = biological target: H3K9me3 tail tail (Homo sapiens) (UniProt P68431); remark: listed apart in the source
[3] = biological target: H3K9me3 tail tail (Homo sapiens) (UniProt P68431); remark: listed apart in the source
[4] = biological target: H3K9me3 tail tail (Homo sapiens) (UniProt P68431); remark: listed apart in the source

Sequence of HP1α (P45973 whole entry): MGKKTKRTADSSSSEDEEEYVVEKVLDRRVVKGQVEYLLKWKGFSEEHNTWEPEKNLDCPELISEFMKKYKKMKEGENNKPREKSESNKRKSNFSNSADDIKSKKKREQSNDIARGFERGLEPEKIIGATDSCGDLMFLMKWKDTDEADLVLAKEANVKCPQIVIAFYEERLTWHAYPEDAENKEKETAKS
Sequence of HP1γ (Q13185 2-183): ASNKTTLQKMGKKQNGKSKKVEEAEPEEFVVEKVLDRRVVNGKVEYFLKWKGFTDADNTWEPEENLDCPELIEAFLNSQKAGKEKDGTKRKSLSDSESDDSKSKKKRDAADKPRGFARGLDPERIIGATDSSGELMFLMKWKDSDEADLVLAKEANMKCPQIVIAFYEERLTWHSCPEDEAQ
Sequence of HP1β (P83916 whole entry): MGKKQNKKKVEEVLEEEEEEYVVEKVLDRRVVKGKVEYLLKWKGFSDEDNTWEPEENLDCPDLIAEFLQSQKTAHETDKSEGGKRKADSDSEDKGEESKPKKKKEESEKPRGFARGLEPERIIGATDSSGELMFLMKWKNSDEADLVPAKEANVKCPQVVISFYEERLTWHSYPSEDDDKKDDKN

HP1α (from UniProt P45973)
Kd [1]: 8.3 µM
Kd [2]: 35 µM

HP1β (from UniProt P83916)
Kd [3]: 5.8 µM

HP1γ (from UniProt Q13185)
Kd [4]: 12 µM
